Experiments:
[1] = molecular target: T1, MUC1 antigen on human breast and bladder carcinoma tissue sections (Homo sapiens, UniProt P15941); experiment: immunostaining of cells or tissue; 3 um paraffin sections of breast and transitional cell bladder tumours, no antigen retrieval; primary antibody 1 h; scFv detected with mouse anti-E-Tag (1:50); StreptABC/HRP, diaminobenzidine; settings: one partner purified
T1 construct: MUC1 mucin in tumour tissue; also called breast tumour tissue sections; sections from bladder carcinomas; source: endogenous, archival paraffin sections of breast and transitional cell bladder tumours
T1 sequence (P15941 24-1255): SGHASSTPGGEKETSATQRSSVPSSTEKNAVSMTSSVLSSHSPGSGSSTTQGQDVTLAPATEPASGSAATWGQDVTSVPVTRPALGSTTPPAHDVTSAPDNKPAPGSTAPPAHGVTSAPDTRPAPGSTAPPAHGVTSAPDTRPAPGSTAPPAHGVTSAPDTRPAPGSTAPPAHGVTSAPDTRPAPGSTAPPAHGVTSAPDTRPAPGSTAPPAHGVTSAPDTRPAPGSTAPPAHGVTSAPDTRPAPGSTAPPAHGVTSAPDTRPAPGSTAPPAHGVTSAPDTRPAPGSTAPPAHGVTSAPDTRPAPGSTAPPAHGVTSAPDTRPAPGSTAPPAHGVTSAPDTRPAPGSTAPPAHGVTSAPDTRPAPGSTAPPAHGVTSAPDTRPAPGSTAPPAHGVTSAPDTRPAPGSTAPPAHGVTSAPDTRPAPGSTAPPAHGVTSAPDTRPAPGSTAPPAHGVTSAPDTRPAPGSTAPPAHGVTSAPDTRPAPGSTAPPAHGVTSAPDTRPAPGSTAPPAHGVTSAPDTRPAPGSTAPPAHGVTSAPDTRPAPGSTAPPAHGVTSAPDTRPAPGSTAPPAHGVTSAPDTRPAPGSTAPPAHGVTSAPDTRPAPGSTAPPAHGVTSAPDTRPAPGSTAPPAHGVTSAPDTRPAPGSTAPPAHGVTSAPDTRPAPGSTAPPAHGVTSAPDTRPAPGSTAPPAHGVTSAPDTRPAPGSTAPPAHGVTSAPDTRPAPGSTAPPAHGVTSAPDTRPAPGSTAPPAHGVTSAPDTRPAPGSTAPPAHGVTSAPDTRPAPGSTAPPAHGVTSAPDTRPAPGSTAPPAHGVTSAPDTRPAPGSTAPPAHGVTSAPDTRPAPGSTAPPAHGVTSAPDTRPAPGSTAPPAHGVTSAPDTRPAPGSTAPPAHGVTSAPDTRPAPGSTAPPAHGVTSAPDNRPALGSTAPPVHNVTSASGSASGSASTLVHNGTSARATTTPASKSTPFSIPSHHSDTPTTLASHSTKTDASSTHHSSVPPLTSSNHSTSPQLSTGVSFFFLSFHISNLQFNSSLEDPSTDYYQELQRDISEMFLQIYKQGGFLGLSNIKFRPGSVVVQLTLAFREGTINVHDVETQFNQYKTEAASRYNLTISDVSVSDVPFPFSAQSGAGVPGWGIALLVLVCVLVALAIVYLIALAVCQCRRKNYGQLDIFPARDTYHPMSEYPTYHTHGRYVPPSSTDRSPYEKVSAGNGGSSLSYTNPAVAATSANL

[2] = molecular target: T2, p(1-25) peptide (Homo sapiens MUC1 repeat, synthetic); experiment: other fluorescence titration; fluorescence quenching in PBS, excitation 290 nm, emission 345 nm; C595 0.12 uM or C595 scFv 0.27 uM, 2.5 ul aliquots of 60 uM peptide added until maximum quenching; Scatchard analysis; settings: both partners purified
T2 construct: 25 residues of the MUC1 tandem repeat region; source: synthetic peptide
T2 sequence (peptide, as listed by the source): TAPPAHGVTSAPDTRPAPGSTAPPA

[3] = molecular target: T3, immunodominant region related peptide APDTRPAPG (Homo sapiens MUC1 repeat, synthetic); experiment: as above; settings: both partners purified
T3 construct: stretch of the MUC1 20 amino acid repeat; Free in solution for fluorescence quenching; source: synthetic peptide
T3 chain: APDTRPAPG

[4] = molecular target: T4, 60 mer MUC1 peptide (Homo sapiens MUC1 repeat, synthetic, UniProt P15941); experiment: as above; settings: both partners purified
T4 construct: source: synthetic peptide, provided by Dr J Darrell Fontenot

[5] = molecular target: T5, 105 mer MUC1 peptide (Homo sapiens MUC1 repeat, synthetic, UniProt P15941); experiment: as above; settings: both partners purified
T5 construct: source: synthetic peptide, provided by Dr J Darrell Fontenot

[6] = molecular target: T3, immunodominant region related peptide …; experiment: peptide epitope affinity chromatography; filtered bacterial supernatant applied to Sepharose 4B conjugated to APDTRPAPG; washed with PBS, 0.02% sodium azide; bound scFv eluted with 3 M sodium thiocyanate; eluate analysed by SDS-PAGE and anti-E-Tag Western blot; settings: one partner purified

Measured: binding result

B1: Monoclonal antibody C595 (antibody, V domains shown)
VH: EVQLVESGGGLVQPGGSLKLSCAASGFTFSSYGMSWVRQTPDKRLELVATINSNGGSTYYPDSVKGRFTISRDNAKNTLYLQMSSLKSEDTAMYYCARDRDGYDEGFDYWG
VL: QIVLTQSPAIMSASPGEKVTMTCSASSSVSYMHWYQQKSGTSPKRWIYDTSKLASGVPARFSGSGSGTSYSLTISSMEAEDAATYYCQQWSSNPPTFGGGTKLEIK
notes: mouse IgG3 heavy chain constant region; mouse kappa light chain constant region; IgG3, kappa light chain; it was used at stated concentrations in PBS; also called NCRC-48; source: hybridoma (spleen cells of a BALB/c mouse immunized against purified MUC1 urinary mucin)
binds: [1] | [2] | [3] | [4] | [5]

B2: C595 scFv clone 31 (scFv, V domains shown)
VH: QVQLQESGGGLVQPGGSLKLSCAASGFTFSSYGMSWVRQTPDKRLELVATINSNGGSTYYPDSVKGRFTISRDNAKNTLYLQMSSLKSEDTAMYYCARDRDGYDEGFDYWGPGTTVTVSS
VL: DIELTQSPSIMSASPGEKVTMTCSASSSVSYMHWYQQKSGTSPKRWIYDTSKLASGVPARFSGSGSGTSYSLTISSMEAEDAATYYCQQWSSNPPTFGGRTKLELK
notes: it is not written as a part; About 30 kDa on SDS-PAGE; also called recombinant C595 scFv; the scFv; source: E. coli HB2151 (pCANTAB 5E, IPTG), bacterial culture supernatant; not shown: E-Tag, C-terminal, kept
binds: [6] | [1] | [2] | [4] | [5]
